Source: PMC4215538, “A clathrin coat assembly role for the muniscin protein central linker revealed by TALEN-mediated gene editing” (eLife, 2014)

Biological target: T1, AP-2 α appendage (mouse, UniProt P17427 701-938)
T1 construct: AP-2 αC subunit appendage, mouse, residues 701–938; It was added soluble to glutathione-Sepharose pull-downs, so GST was probably removed; also called αC appendage (mouse residues 701–938); purified AP-2 α appendage; source: purified (from the GST-αC appendage construct described previously)
T1 sequence (P17427 701-938): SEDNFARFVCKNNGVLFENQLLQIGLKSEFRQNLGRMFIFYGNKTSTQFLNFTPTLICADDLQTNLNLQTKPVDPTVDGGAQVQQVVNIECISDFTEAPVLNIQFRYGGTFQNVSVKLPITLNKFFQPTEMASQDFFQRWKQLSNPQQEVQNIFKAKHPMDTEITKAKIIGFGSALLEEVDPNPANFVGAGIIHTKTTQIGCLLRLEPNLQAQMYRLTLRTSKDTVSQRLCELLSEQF
Test: pull-down; ~200 μg GST fusion on glutathione-Sepharose; rat brain cytosol supplemented with 5 μM or 25 μM purified AP-2 α appendage; recovery of the added α appendage in the pellets
Settings: both partners purified

B1: GST-EPS15 (595–740) (domain or fragment, UniProt P42566 595-740, looked up)
chain: SKEEDPFNVDSSSLTGPVADTNLDFFQSDPFVGSDPFKDDPFGKIDPFGGDPFKGSDPFASDCFFRQSTDPFATSSTDPFSAANNSSITSVETLKHNDPFAPGGTVVAASDSATDPFASVFGNESFGGGFADFSTLSKVNNEDPFR
notes: also called GST-EPS15 fusion; C-terminal region of EPS15; source: purified GST fusion (purification described in Umasankar et al., 2012)
- binding result: binds
